This is an account of results in patent US20230235080A1, “TROPHOBLAST CELL-SURFACE ANTIGEN-2 (TROP-2) ANTIBODIES” (Bionecure Therapeutics, Inc., priority 2020, published 2023).

Experiment [1] deals with T1, human Trop-2 on Trop-2 positive cancer cells (human, UniProt P09758 27-323).
T1 sequence (looked up): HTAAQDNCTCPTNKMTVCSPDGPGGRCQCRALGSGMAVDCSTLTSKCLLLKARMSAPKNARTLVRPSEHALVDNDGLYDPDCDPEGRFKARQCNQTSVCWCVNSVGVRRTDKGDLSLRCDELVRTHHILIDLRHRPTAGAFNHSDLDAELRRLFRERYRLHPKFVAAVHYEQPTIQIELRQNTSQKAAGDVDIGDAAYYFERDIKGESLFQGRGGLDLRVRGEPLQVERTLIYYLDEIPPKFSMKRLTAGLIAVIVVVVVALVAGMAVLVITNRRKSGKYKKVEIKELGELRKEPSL
Briefly: cell-based or functional assay.

Experiment [2] concerns the target T2, human Trop-2-ECD-6His fusion protein (human, UniProt P09758 27-274).
T2 construct: Expressed in a human 293 cell line; also called huTrop-2; human Trop-2 antigen
T2 sequence: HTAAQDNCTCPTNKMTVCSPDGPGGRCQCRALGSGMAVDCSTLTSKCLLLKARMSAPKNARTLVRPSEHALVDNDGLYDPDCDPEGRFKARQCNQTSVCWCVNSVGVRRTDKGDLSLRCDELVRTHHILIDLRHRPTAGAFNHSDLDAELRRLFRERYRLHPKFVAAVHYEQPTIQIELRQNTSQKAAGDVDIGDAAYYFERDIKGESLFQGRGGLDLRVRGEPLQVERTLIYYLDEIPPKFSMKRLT
Briefly: antigen binding ELISA on immobilized human Trop-2-ECD-6His. (An ELISA detects its analyte on a solid surface through an enzyme-linked reagent.)

In experiment [3] the target is T3, human Trop-2-ECD-6His fusion protein (Homo sapiens, UniProt P09758).
T3 construct: made in house; host or cells: human 293 cell line
T3 sequence (P09758 with tags, fused parts or gaps): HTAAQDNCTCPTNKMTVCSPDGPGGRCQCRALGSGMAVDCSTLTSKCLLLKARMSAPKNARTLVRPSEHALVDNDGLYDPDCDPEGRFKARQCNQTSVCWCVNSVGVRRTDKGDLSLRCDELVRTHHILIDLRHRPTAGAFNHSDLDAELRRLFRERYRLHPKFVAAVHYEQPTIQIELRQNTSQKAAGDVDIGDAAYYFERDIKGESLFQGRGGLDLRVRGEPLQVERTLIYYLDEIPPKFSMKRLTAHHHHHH
Briefly: Antigen binding assay (ELISA) on immobilized Trop-2-ECD-6His.

The target of experiment [4] is T1, human Trop-2 on Trop-2 positive cancer …. The experiment in a line: cell-based or functional assay. The source holds these as a separate data set.
Experiment [5] deals with Trop-2 positive breast cancer cell line MDA-MB-468. Briefly: Internalization assay by flow cytometry (Example 2 protocol). Format: cell-based, human. The conditions noted are these: Table 9; second round of humanization of #118-2-5. On the procedure: The chimeric IgG1 #118-2-5 and #125-1-5 were further evaluated by internalization assay using Trop-2 positive breast cancer cell line MDA-MB-468. MDA-MB-468 cells were seeded at 1×10^5 cell/well. Next, the chimeric or benchmark IgGs were added to cells in FACS buffer and incubated for 2 hours at 4° C. After incubation, the cells were washed to remove unbound antibody. The cells were then incubated at 37° C. After 2 hours, the cells were dissociated and stained with fluorescent-conjugated […] secondary antibodies for 30 minutes on ice in dark before being analyzed using Beckman flow cytometry system. The fluorescent intensity and cell binding percentage at each time point were analyzed by Beckman flow cytometric software. The amount of chimeric IgGs internalized into cells was determined using the following formula: % internalization rate = 100 × (MFI4°C - MFI37°C) / MFI4°C.
(Flow cytometry measures light scatter and fluorescence of single cells or particles in a stream.)

[6] abbreviates: Table 10, humanized #125-1-5 antibodies.

Where a chain is given by its changes, count along the chain named.

B1: humanized #125-1-5 Hu1/Lu6 (antibody, V domains shown)
VH: QVQLVQSGAEVKKPGASVKVSCKASGYTFTTYVIHWVRQAPGQRLEWMGYINPNNDGTKYNEKFKGRVTITRDTSASTAYMELSSLRSEDTAVYYCARPHFETHAMDYWGQGTLVTVSS
VL: DIQMTQSPSSLSASVGDRVTITCKASEDIFNRLAWYQQKPGKAPKLLISGATSLETGVPSRFSGSGSGKDYTLTISSLQPEDFATYYCQQYWNTWTFGQGTKVEIK
notes: Humanized antibody
With B1, in experiment [1], the “Internalization rate (flow cytometry, MDA-MB-468 cells)” value was 14%. For the same molecule, the EC50 – broadly, the concentration at which the effect is half-maximal – in experiment [2] was found to be 0.003 nM.

B2: humanized #125-1-5 Hu2/Lu6 (antibody, V domains shown)
VH: B1 VH with R38K, A40K, R44G, M48I
VL: B1 VL
notes: Humanized antibody
As for B2, in experiment [1], the “Internalization rate (flow cytometry, MDA-MB-468 cells)” value came out at 14.1%. Besides, a half-maximal effect in experiment [2] (EC50) was put at 0.018 nM.

B3: humanized #125-1-5 Hu4/Lu5 (antibody, V domains shown)
VH: B1 VH with V20M, M48I, V68A, I70L, R72S, T74K
VL: B1 VL with I48L, S49Y, K69T
notes: Humanized antibody
For B3, the “Internalization rate (flow cytometry, MDA-MB-468 cells)” value in experiment [1] worked out at 24.9%. The molecule also yielded an EC50 in experiment [2] of 0.019 nM.

B4: humanized #125-1-5 Hu3/Lu6 (antibody, V domains shown)
VH: QVQLVQSGAEVKKPGASVKVSCKASGYTFTTYVIHWVRQAPGQRLEWMGYINPNNDGTKYNEKFKGKATLTSDKSSTTAYMEVRGLTSEDSAVYYCARPHFETHAMDYWGQGTLVTVSS
VL: B1 VL
notes: Humanized antibody
Consider B4, for which, in experiment [1], the “Internalization rate (flow cytometry, MDA-MB-468 cells)” value turned out to be 7.5%. Further, the EC50 in experiment [2] was found to be 0.045 nM.

B5: humanized #125-1-5 Hu4/Lu6 (antibody, V domains shown)
VH: B1 VH with V20M, M48I, V68A, I70L, R72S, T74K
VL: B1 VL
notes: Humanized antibody
B5: the “Internalization rate (flow cytometry, MDA-MB-468 cells)” value in experiment [1] was determined as 10.3%. Further, the EC50 in experiment [2] came out at 0.022 nM.

B6: humanized #125-1-5 Hu2/Lu5 (antibody, V domains shown)
VH: B1 VH with R38K, A40K, R44G, M48I
VL: B1 VL with I48L, S49Y, K69T
notes: Humanized antibody
As for B6, in experiment [1], the “Internalization rate (flow cytometry, MDA-MB-468 cells)” value is 47.3%. This molecule also displayed an EC50 in experiment [2] of 0.007 nM.

B7: humanized #125-1-5 Hu1/Lu5 (antibody, V domains shown)
VH: B1 VH
VL: B1 VL with I48L, S49Y, K69T
B7: in experiment [1], the “Internalization rate (flow cytometry, MDA-MB-468 cells)” value came to 49.7%. The molecule further gave an EC50 in experiment [3] (setting [6]) of 0.016 nM.

B8: humanized IgG #125-1-5 Hu3/Lu5 (antibody, V domains shown)
VH: B4 VH
VL: DIQMTQSPSSLSASVGDRVTITCKASEDIFNRLAWYQQKPGKAPKLLLYGATSLETGVPSRFSGSGSGTDYTLTISSLQPEDFATYYCQQYWNTWTFGQGTKVEIKR
notes: also called IgG Hu3/Lu5
With B8, the “Internalization rate (flow cytometry, MDA-MB-468 cells)” value in experiment [1] came out at 14%. The EC50 in experiment [2] was 0.012 nM.

B9: #125-1-5 mouse H14-4/L3-4: parental mouse #125-1-5 heavy/light chains H14-4/L3-4, comparator of the humanized IgGs (antibody, V domains shown)
VH: QIQLVQSGPELVKPGASVKMSCKASGYTFTTYVIHWVKQKPGQGLEWIGYINPNNDGTKYNEKFKGKATLISDKSSTTAYMEVRGLTSEDSAVYYCARPHFETHAMDYWGQGTSVTVSS
VL: DIQMTQSPSSFSVSLGDSVTITCKASEDIFNRLAWYQQKPGNAPRLLISGATSLETGVPSRFSGGGSGKEYTLSITSLQNEDVATYYCQQYWNTWTFGGGTKLEIK
With B9, the response in experiment [3] (setting [6]) was half-maximal at 0.004 nM (EC50). In other words, the picomolar range.

B10: A1X4-MMAE antibody-drug conjugate (antibody, V domains shown)
VH: QVQLQESGPGLVKPSETLSLTCTVSGFSLTSYGVNWIRQPPGKGLEWIGVMWAGGSTNYNSALMSRVTISVDTSKNQFSLKLSSVTAADTAVYYCARDENWDGAWFAYWGQGTLVTVSS
VL: DIVMTQSPDSLAVSLGERATINCKSSQSLLNSGTRKNYLAWYQQKPGQPPKLLISWASSRESGVPDRFSGSGSGTDFTLTISSLQAEDVAVYYCKQSYNLFTFGGGTKVEIKR
modifications: mc-vc-PABA-MMAE on the reduced antibody; chain and positions not stated
For B10, in experiment [4], the “in vitro cytotoxicity IC50, Trop-2-high BxPC-3 cells” value was below 1 nM.

B11: HuA/Lu(X3): humanized #118-2-5, heavy chain HuA (SEQ ID NO: 23) with light chain Lu(X3) (SEQ ID NO: 36) (antibody, V domains shown)
VH: B10 VH
VL: DIVMTQSHKFISTSVGDRVSITCKASQDVDTAVAWYQQKPGQSPKLLIHWASTRHTGVPDRFTGGGSGTDFTLTLSNVQSEDLADYFCQQYSTFPWTFGGGTRLEIK
For the molecule B11, the Internalization rate in experiment [5] was determined as 13.22%. The molecule also came in with an EC50 in experiment [3] (Table 8, second round of humanization of #118-2-5) of 0.45 nM.

B12: A1,2X4-MMAE antibody-drug conjugate (antibody, V domains shown)
VH: B10 VH with V67L, V71K
VL: B10 VL
modifications: mc-vc-PABA-MMAE on the reduced antibody; chain and positions not stated
B12: the “in vitro cytotoxicity IC50, all cells that express different levels of Trop-2” value in experiment [4] was below 1 nM.

B13: Hu(A1)/LuX: humanized #118-2-5, heavy chain Hu(A1) (SEQ ID NO: 29) with light chain LuX (SEQ ID NO: 27) (antibody, V domains shown)
VH: B10 VH
VL: DIVMTQSPDSLAVSLGERATINCKSSQSLLNSGTRKNYLAWYQQKPGQPPKLLIYWASSRESGVPDRFSGSGSGTDFTLTISSLQAEDVAVYYCKQSYNLFTFGGGTKVEIK
For the molecule B13, the Internalization rate in experiment [5] is given as 56.01%.
